± gives the uncertainty stated by the source.

The nature of this data set: amyloid nucleation score (Sup35N fusion, yeast selection) (log enrichment); library NNK1; higher = more nucleation; inactive = no reads after selection. Put shortly: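 The nucleation score is a DiMSum log enrichment of output over input reads, centred on the mode score of non-aggregating sequences. Sequences under 100 input reads were excluded, and reads came from Illumina sequencing of plasmid inserts. Psi-negative yeast expressing Sup35N fused to peptides of 20 random codons were induced with 100 μM copper sulfate for 24 hours and grown 7 days at 30°C on medium lacking adenine and uracil. Random libraries had three technical output replicates.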
The substance NRHRRVPFRISTALLPVKLQ returned an amyloid nucleation score of 0.632 ± 0.5.

Consider RNIATYYFRSN, for which the amyloid nucleation score came to 0.612 ± 0.48.

With SSSIVLCAVRCSRPSWFGML, the amyloid nucleation score worked out at 1.45 ± 0.32.

With NYIVKAFSVVCFTSDTSSFR, the amyloid nucleation score stood at 6.08 ± 0.096.

In the case of CVKASLMMWVQFYIDSY, the amyloid nucleation score entry was “inactive”.

In turn, YREEEILRVVNLTIFAGPGM came in with an amyloid nucleation score of -0.55 ± 0.39.

With LRTRSLTALFQLCYHTCNVG, the amyloid nucleation score was 0.431 ± 0.42.

With WASELVRHHNDKINCSLRCG, the amyloid nucleation score is -0.253 ± 0.84.

Take IHRFKFGG: the amyloid nucleation score is 1.98 ± 0.2.

CAKLCKASHSVFIDDRRCVR: the amyloid nucleation score is -1.02 ± 2.4.

KSQKG: the amyloid nucleation score was 0.008 ± 0.36.

Take DLRFSTRLGHCISVFMRKIW: the amyloid nucleation score entry is “inactive”.

On to TWDFSFDQGIKY, for which the amyloid nucleation score is -0.125 ± 0.32.

Take CTGSCVRRVCGGFIEADIRY: the amyloid nucleation score is -0.28 ± 0.41.

Turning to SVSEGRVGLYNCG, the amyloid nucleation score was 0.449 ± 0.89.

Take GKEPVACRIPNKA: the amyloid nucleation score was 1.17 ± 0.3.

For the substance SDKEVVSLQEVHTQSEGSEG, the amyloid nucleation score was 0.174 ± 0.27.

On to FKVTFNRDVPNESSTALCSV, for which the amyloid nucleation score was -1.01 ± 1.7.

As to YVTDVDF, the amyloid nucleation score result was “inactive”.

VLYLDLFWRPPSLKGLL: the amyloid nucleation score is -0.17 ± 0.32.

As for SRDEFCG, the amyloid nucleation score is -0.326 ± 0.47.

For KVIRAGHDVVPRTYRRRSRR, the amyloid nucleation score was 1.29 ± 0.58.

For YCAKNCEGFGRVYISG, the amyloid nucleation score was -2.42 ± 2.7.

In turn, YNGVCSNW gave an amyloid nucleation score of 0.13 ± 0.48.

With IRYYVVSSVVDSNS, the amyloid nucleation score is -0.142 ± 0.31.

LRNRMGNDIISILITIPKIV: the amyloid nucleation score was 0.217 ± 0.34.

Consider VSNVRNSCLHLSARLYSTDL, for which the amyloid nucleation score is -0.702 ± 0.91.

Regarding VVSFLLHPCDFRSWFCGCIW, the amyloid nucleation score is -0.226 ± 0.93.

In the case of NLIWMVKYCYIIFRIPTTCL, the amyloid nucleation score worked out at 1.77 ± 0.42.

The substance DTNTSIMHTIPRVGLNGCRR yielded an amyloid nucleation score of 10.02 ± 0.051.

The substance IMCPMWWLVLYNSSVQRYAE showed an amyloid nucleation score of 6.11 ± 0.07.

As to EERVFVYRLWYQSLVRHYEL, the amyloid nucleation score is -0.204 ± 0.41.

On to TQPMSF, for which the amyloid nucleation score result was “inactive”.

Substance ALLNVQVRGYVGLGR came in with an amyloid nucleation score of 1.4 ± 0.52.

Substance SGRPLEYTDNGEQDRMWWQS returned an amyloid nucleation score of -0.044 ± 0.88.

Take DWSIDILYSVIRSPVNLINS: the amyloid nucleation score was -1.01 ± 0.52.

Consider VYYLGVKAFLFNSSF, for which the amyloid nucleation score came out at 0.824 ± 0.54.

With RLSSPVSI, the amyloid nucleation score turned out to be 0.028 ± 0.68.

VWMVMSYPDHTLVLLLTG yielded an amyloid nucleation score of -1.33 ± 0.57.

In the case of IMLLLREKLASIRMMQECQL, the amyloid nucleation score result is “inactive”.

In turn, FFNCFLLDNNYVSLYLWSKD returned an amyloid nucleation score of 6.832 ± 0.068.

For AYLGASREIYCYGPMYYMLP, the amyloid nucleation score turned out to be 2.97 ± 0.098.

AVGIANFTAPKCWLDNVGP registered an amyloid nucleation score of 0.085 ± 0.59.

For NLGMALRSCMTSTHSVSMW, the amyloid nucleation score is 0.433 ± 0.47.

On to HVSVRSLRAVGVLRRRCGNG, for which the amyloid nucleation score result was “inactive”.

PFVGTIFVSGSGTSMENGIC had an amyloid nucleation score of -0.601 ± 0.47.

Substance NWEWAFRCPLWCLWDYRSTM displayed an amyloid nucleation score of 0.751 ± 0.57.

As to TCVSYTP, the amyloid nucleation score was found to be 1.75 ± 0.56.

CYVLRSRSCLVFLMVYRGRV came in with an amyloid nucleation score of 4.95 ± 0.073.

In turn, ENNTGSVETLYRCSEKLVLE had an amyloid nucleation score of 0.228 ± 0.27.

As to AQVNLIPNLRETLYDPAISR, the amyloid nucleation score is 0.665 ± 0.55.

VIRYSIKSCFLYIKTYQGYM: the amyloid nucleation score was -0.907 ± 0.43.

As to SYFVIFSGTM, the amyloid nucleation score result was “inactive”.

Substance MIAHLAPINRDAEYFINAIC gave an amyloid nucleation score of -0.236 ± 0.27.

Regarding YIWAFLVGFVLTHYCSPHPD, the amyloid nucleation score was -1.07 ± 0.68.

The substance RSNNSFCIPLSFMCYVYQAT had an amyloid nucleation score of -0.172 ± 1.6.

For the substance TAFVILLDHGGCDSRVIYEG, the amyloid nucleation score was 0.043 ± 0.69.

WGMCFAVPNISTGLNNYTMP gave an amyloid nucleation score of -0.234 ± 0.64.

TFGPTHLGLVKYVEIDYHVA showed an amyloid nucleation score of -0.725 ± 0.9.

Substance LFSRVFSAANVIRHNFLFME showed an amyloid nucleation score of 0.746 ± 0.9.

Take RMFCPHCDYLVSVFSWNPRC: the amyloid nucleation score amounted to 1.54 ± 0.57.

Consider IVNNIVCSAGVDPFSQHCMD, for which the amyloid nucleation score stood at 1.84 ± 0.67.

On to CLNTMWRKPVEAREM, for which the amyloid nucleation score was 0.189 ± 1.

The substance FHVSDV had an amyloid nucleation score of -0.125 ± 0.98.

In the case of QVRLVNWVCRM, the amyloid nucleation score was 3.71 ± 0.059.

For LNSYVRG, the amyloid nucleation score stood at 0.201 ± 0.3.

FDYLCSGGMSTILSCITFPL yielded an amyloid nucleation score of -0.37 ± 0.9.

Substance KCRGCSMMRAS displayed an amyloid nucleation score of 1.84 ± 0.5.

TVHTLSIFFSGRAFAANPFS: the amyloid nucleation score turned out to be 2.36 ± 0.16.

For the substance RHYGGAFQRLYRMSGPMT, the amyloid nucleation score is -1.05 ± 0.96.

SFVIFCRKGNWEWDD came in with an amyloid nucleation score of -0.671 ± 0.37.

PIRVM showed an amyloid nucleation score of -0.495 ± 0.43.

The substance VPNASLSWISFISHLFYMSS returned an amyloid nucleation score of 0.034 ± 0.37.

Substance TKWTGVFIWSLKAD returned an amyloid nucleation score of -0.051 ± 0.84.

IILLNNYTDMHIPEGIGVTM: the amyloid nucleation score was 0.466 ± 1.4.

YFVLKCSC: the amyloid nucleation score was 2.05 ± 0.49.

CVMNLYGGMPHAGRWTGF showed an amyloid nucleation score of 4.33 ± 0.11.

In the case of SWCNAYPQWWVRSLSMPS, the amyloid nucleation score was -0.236 ± 0.55.

Take YTTVVQF: the amyloid nucleation score was determined as 0.064 ± 0.23.

In turn, IKNKGRYVFETPGL gave an amyloid nucleation score of 0.13 ± 0.87.

In the case of REDAYR, the amyloid nucleation score was -0.429 ± 0.91.

For the substance VQAVIWWRGRDYGRHRSRPW, the amyloid nucleation score was -0.35 ± 0.35.

Turning to TEEKSRVRLFNRRHRGISRG, the amyloid nucleation score amounted to 3.95 ± 0.091.

Regarding VGTFTTELKVVGRIDIVWAR, the amyloid nucleation score came to 0.723 ± 0.46.

DRRCLRYSLNCLLFRSIYYN came in with an amyloid nucleation score of 0.652 ± 1.

In turn, GSGVDSRVSCKKFILSLVGA gave an amyloid nucleation score of -0.39 ± 1.7.

The substance HVFPHLWKYYCMAVALVFLR showed an amyloid nucleation score of 1.38 ± 0.61.

DIPYVFLLFLQECDNVFLCH displayed an amyloid nucleation score of 2.54 ± 0.17.

ISLRYFPNYISFHKLGFRSA displayed an amyloid nucleation score of 0.523 ± 0.39.

Regarding RSCELGFDPVKKFFRIRIWG, the amyloid nucleation score is -0.006 ± 0.47.

Turning to CGFVEMTSRSKIHSLICWPG, the amyloid nucleation score stood at 1.53 ± 0.44.

PVMFVDSMSVWVLLVCYRR gave an amyloid nucleation score of 0.19 ± 0.74.

On to PMPSLECNGVHFIKGIRLTL, for which the amyloid nucleation score was determined as 0.754 ± 0.99.

Turning to IEFLAILLVAAMVQ, the amyloid nucleation score was -0.345 ± 1.2.

As to PMMMKIVKHDIVFSLEFHLI, the amyloid nucleation score entry was “inactive”.

Regarding IVAVDFGLFRMRTIPRAAVS, the amyloid nucleation score was -0.144 ± 1.6.

As for SMYVPCRFSTDSTMLPNELK, the amyloid nucleation score is -0.19 ± 0.66.

Consider ACWFMCFYRFPAAWY, for which the amyloid nucleation score was 0.079 ± 0.3.

On to TQSRPLETGCPQLERSGLLA, for which the amyloid nucleation score was -0.692 ± 0.81.

LASTVSDWN registered an amyloid nucleation score of 0.32 ± 0.39.

Take IFGITNSMLVFMGYCLIHCL: the amyloid nucleation score was -0.895 ± 1.

Consider TRCKTGSLRLNYVDISQPHV, for which the amyloid nucleation score amounted to 0.683 ± 0.8.

In turn, MSQAALLVLGNRFGNNDIVG displayed an amyloid nucleation score of -0.078 ± 0.44.

The record behind these values is the supplement of paper PMC12042874.
